Data from paper doi:10.1101/2025.02.04.636384 (bioRxiv, 2025).

Target: the molecule itself
Assay: SEC

B1: Aeropyrum pernix Kv (KvAP) channel, wild type (natural protein, UniProt Q9YDF8 1-295, looked up)
chain: MSVERWVFPGCSVMARFRRGLSDLGGRVRNIGDVMEHPLVELGVSYAALLSVIVVVVEYTMQLSGEYLVRLYLVDLILVIILWADYAYRAYKSGDPAGYVKKTLYEIPALVPAGLLALIEGHLAGLGLFRLVRLLRFLRILLIISRGSKFLSAIADAADKIRFYHLFGAVMLTVLYGAFAIYIVEYPDPNSSIKSVFDALWWAVVTATTVGYGDVVPATPIGKVIGIAVMLTGISALTLLIGTVSNMFQKILVGEPEPSCSPAKLAEMVSSMSEEEFEEFVRTLKNLRRLENSMK
stoichiometry N: 4
